B1: EGFR-s10: soluble scFv generated from phage clone EGFR-PC10; amino acid sequence SEQ ID NO: 9 (protein)
scFv: EVQLVESGGGLVQPGGSLRLSCAASGFNLSSFWMSWVRQAPGKGLEWVANINHDGSDKYYVDSVKGRFSISRDNTKNSVYLQMDSLRGEDTAVYYCAKGKSLYDGSALDMWGQGTMVTVSSGGGGSGGGGSGGGGSDIVMTQSPSTLSASVGDRVTITCRASQTIGRWLAWYQQKPGKAPKLLIYGASSLQSGVPSRFSGSGSGTDFTLTISSLQPEDFATYYCQQSYSTLWTFGQGTKLEIKR
modifications: Whole scFv
B2: EGFR-s10-LV (conjugate)
scFv: B1 scFv
modifications: left off: small tags and cut ends
B3: EGFR-s10-LD (conjugate)
scFv: B1 scFv
modifications: left off: small tags and cut ends

Legend:
human EGFR-Ex-Fc = molecular target: T1, human EGFR-Ex-Fc (Homo sapiens, UniProt P00533); experiment: Recognition of human EGFR-Ex-Fc by EGFR-s10; format: binding
T1 construct: the extracellular domain of human EGFR-Fc fusion protein (EGFR-Ex-Fc); purchased R&D system
Source text: (§1) EGFR s10 recognized both human and marine EGFR-Ex-Fc. This feature eliminates any requirements for a surrogate molecule to evaluate toxicity in murine platforms. After validating internalization of EGFR-s10 in target cells, we fabricated LTLs loaded with doxorubicin or vinorelbine (EGFR-s10-LD and EGFR-s10-LV, respectively) using a thin film method and PEGylation of EGFR-s10. […] The zeta-potentials were all higher than required to prevent formation of aggregates. […] In summary, EGFR-specific binding of EGFR-s10 was retained through chemical processing, and the resulting LTLs fulfilled the requirements of anti-neoplastic liposomal drugs, indicating suitability for further development.

marine EGFR-Ex-Fc = molecular target: T2, marine EGFR-Ex-Fc (Mus musculus, UniProt Q01279); experiment: Recognition of murine EGFR-Ex-Fc by EGFR-s10; format: binding
T2 construct: the extracellular domain of human EGFR-Fc fusion protein (EGFR-Ex-Fc)
Source text: as §1

Ca9-22 cells [1] = experiment: Endocytosis assay of soluble EGFR-s10 scFv, Ca9-22; format: cell-based, human; conditions: 30 min, confocal microscopy
Experimental: (§2) Cells were incubated with EGFR-s10 for 30 min at 4° C. or 37° C. Following a PBS wash, the cells were fixed with 2% paraformaldehyde and permeabilized with 0.1% TRITON® X-100. Blocking was accomplished by adding 3% BSA. Mouse ANTI-FLAG antibodies were added to the cells and labeled with FITC anti-mouse IgG. Nuclei were stained with DAPI, and cells were observed on a confocal microscope (TCS-SP5, Leica).
(§3) We produced soluble scFv from EGFR-PC10 and designated it as EGFR-s10. Target binding and internalization are essential requirements of LTL-targeting moieties. We investigated these features of EGFR-s10 in SCCHN cancer cell lines. FaDu cells and Ca9-22 cells were separately incubated with EGFR-s10 at 4° C. or 37° C. for 30 min and compared with isotypic IgG controls. […] (FIGS. 3A-B).

FaDu cells [2] = experiment: Endocytosis assay of soluble EGFR-s10 scFv, FaDu; format: cell-based, human; conditions: 30 min, confocal microscopy
Experimental: as §2, §3

[3] = test system: Ca9-22 subcutaneous xenograft; experiment: Murine subcutaneous Ca9-22 xenograft therapeutic assay; format: in vivo; conditions: 1.5 mg/kg twice a week for 4 weeks
Experimental: FaDu and Ca9-22 cells were inoculated s.c. into the flanks of 8- to 10-week-old Nod-SCID mice (1×10^6 cells/mouse). The diameters of the resulting tumors were measured twice per week, and tumor volume was calculated as follows: large diameter×(small diameter)^2×0.52. When tumors reached a mean volume of 350 mm^3, mice with similarly sized tumors were randomized into treatment cohorts (n=8 mice/group). Therapeutic regimens were injected intravenously (i.v.) as PBS, non-targeted liposomal drugs, or EGFR-s10 conjugated LTLs at 1 mg/kg, twice a week for 4 weeks, with a cumulative dose of 8 mg/kg for each group. The tumor volume was monitored twice a week. Premature death endpoints included weight loss greater than 5 g, inability to eat, or tumor volume exceeding 2000 mm^3.
The LTL treatment confers a statistically significant survival advantage over the non-targeting liposome (p=0.00153) and the median survival time of LTL group was 1.5-times longer than that of NTL group (94 days versus 60 days, respectively; FIG. 5D, upper and lower panels). We also tested singlet vinorelbine treatment in forms of free drug, NTL or LTL, with a dose of 1.5 mg/kg twice a week for 4 weeks in subcutaneously Ca9-22-xenografted NOD/SCID mice.

Ca9-22 cells [4] = experiment: In vitro cytotoxicity assay (WST-1), Ca9-22; format: cell-based, human
Experimental: (§4) FaDu and Ca9-22 cells were incubated with various concentrations of non-targeted liposomal drugs, or EGFR-s10-conjugated LTLs for 4, 8, 16 and 24 hr. The medium was replaced with complete medium for 48 hr, and 4-[3-(4-iodophenyl)-2-(4-nitrophenyl)-2H-5-tetrazolio]-1,3-benzene disulfonate (WST-1) was added at 0.5 mg/ml. After the cells were incubated for 3 hr at 37° C., the reaction products' absorbance at 440-nm was measured, and half maximal inhibitory concentrations (IC50) were calculated.
(§5) The cytotoxicity of EGFR-s10-conjugated LTLs was compared to that of non-targeting counterparts in human SCCHN cell lines. Cell viability was analyzed by the WST-1 assay and calculated as percentage of living cells.

[5] = Particle size by dynamic light scattering; format: physicochemical; conditions: DLS at 25° C.
Experimental: (§6) The average particle size of liposomes was determined by dynamic light scattering (DLS) at 25° C. using Malvern Zetasizer Nano ZS (Malvern instruments) with a 633-nm laser and a detection angle of 90°. The zeta-potential of the liposomes was measured using laser Doppler electrophoresis on the Malvern Zetasizer Nano ZS.

[6] = Zeta-potential by laser Doppler electrophoresis; format: physicochemical
Experimental: as §6

FaDu cells [7] = experiment: In vitro cytotoxicity assay (WST-1), FaDu; format: cell-based, human
Experimental: as §4, §5

Molecule | recognition of human EGFR-Ex-Fc (human EGFR-Ex-Fc) | recognition of marine EGFR-Ex-Fc (marine EGFR-Ex-Fc) | binding to cells (Ca9-22 cells [1]; Ca9-22, 4° C.) | internalization (Ca9-22 cells [1]; Ca9-22, 37° C.) | binding to cells (FaDu cells [2]; 4° C.) | internalization (FaDu cells [2]; 37° C.) | mean tumor volume compared to NTL vinorelbine [3] | weight loss [3] | IC50 relative to non-targeting liposome (Ca9-22 cells [4]) | Z-average [5] | ζ-potential [6] | IC50 relative to non-targeting liposome (FaDu cells [7])
B1 | recognized | recognized | bound to the cell membrane | Internalization of EGFR-s10 (scFvs) as cytoplasmic aggregates was observed | bound to the cell membrane | Internalization of EGFR-s10 (scFvs) as cytoplasmic aggregates was observed |  |  |  |  |  | 
B2 |  |  |  |  |  |  | smaller | no weight loss was observed | 0.14 fold | 115.2 nm·days | −29.2 mV | 0.21 fold
B3 |  |  |  |  |  |  |  |  | 0.0028 fold | 125 nm·days | −28.1 mV | 0.33 fold
